# Read-outs that look alike come from different tables or passages of the source.
# B1: 13A8n-PEG20-31A12c bispecific (bispecific antibody)
# scFv 1: DIQLTQSPSFLSASVGDRVTITCQASQSISNELSWYQQKPGKAPKLLIYRASTLTSGVPSRFSGSGSGTEFTLTISSLQPEDFATYYCQQGYNSNDVDNVFGGGTKVEIKGGGGSGGGGSGGGGSGGGGSEVQLVESGGGLVQPGGSLRLSCTVSGIDLSSYDLSWVRQAPGKGLEWVGYIYTDSSTWYANWAKGRFTISRDNSKNTLYLQLNSLRAEDTAVYYCARGSTDYAFDTRLDLWGQGTLVTVSS
# scFv 2: DIQLTQSPSFLSASVGDRVTITCQASEDIESYLAWYQQKPGKAPKLLIYSASTLTSGVPSRFSGSGSGTEFTLTISSLQPEDFATYYCLGADDTTTVFGGGTKVEIKGGGGSGGGGSGGGGSGGGGSEVQLVESGGGLVQPGGSLRLSCTASGFSLSSYWLTWVRQAPGKGLEWVGTIATSSTYYASWAKGRFTISRDNSKNTLYLQLNSLRAEDTAVYYCARGLTTDYDLDLWGQGTLVTVSS
# modifications: C-terminal azidohomoalanine (Aha) joined through a linear 20 kDa PEG to the Aha of the other scFv; N-terminal azidohomoalanine (Aha) joined through a linear 20 kDa PEG to the Aha of the other scFv
# B2: 13A8n-PEG-45G5c bispecific (bispecific antibody)
# scFv 1: B1 scFv 1
# scFv 2: MADIQLTQSPSFLSASVGDRVTITCQSSQSIYNNNLLSWYQQKPGKAPKLLIYFASTLASGVPSRFSGSGSGTEFTLTISSLQPEDFATYYCLGGYDDDADTAFGGGTKVEIKGGGGSGGGGSGGGGSGGGGSEVQLVESGGGLVQPGGSLRLSCTVSGFSLSVYAINWVRQAPGKGLEWVGIINDVDDTAYSAWAKGRFTISRDNSKNTLYLQLNSLRAEDTAVYYCARGYLSYAYAGDAFDPWGQGTLVTVSSGM
# modifications: C-terminal azidohomoalanine (Aha) joined through a 20 kDa PEG to the Aha of the other scFv; N-terminal azidohomoalanine (Aha) joined through a 20 kDa PEG to the Aha of the other scFv
# B3: 13A8c-PEG-22H8c bispecific (bispecific antibody)
# scFv 1: B1 scFv 1
# scFv 2: DIQLTQSPSFLSASVGDRVTITCQSSQTVYKNNLLSWYQQKPGKAPKLLIYLASTLASGVPSRFSGSGSGTEFTLTISSLQPEDFATYYCLGGYDDDADTAFGGGTKVEIKGGGGSGGGGSGGGGSGGGGSEVQLVESGGGLVQPGGSLRLSCTVSGFSLSTYTLNWVRQAPGKGLEWVGAISYDGGTAYANWAKGRFTISRDNSKNTLYLQLNSLRAEDTAVYYCARGFYVYAYIGDAFDPWGQGTLVTVSS
# modifications: C-terminal azidohomoalanine (Aha) joined through a 20 kDa PEG to the Aha of the other scFv
# B4: 13A8c-40KPEG-31A12c bispecific (bispecific antibody)
# scFv 1: B1 scFv 1
# scFv 2: B1 scFv 2
# modifications: C-terminal azidohomoalanine (Aha) joined through a linear 40 kDa PEG to the Aha of the other scFv
# B5: 28D2 chimeric mAb (antibody, V domains shown)
# VH: QSLGESGGRLVTPGTPLTLTCTVSGLSLSKNAIAWVRQAPGKGLEWIGIIYAGGATTYASWAKGRFTISKSSTTVDLKITSPTTVDTATYFCAREYAGDSYYTGYTQLDLWGPGTLVTVSS
# VL: ALVMTQTPASVSAAVGGTVTINCQASEDLFSSLAWFQQKPGQPPKLLIYSASTLASGVPSRFSGSGSGTEFTLTISDLECADAATYYCLGLYYYLTPDPIYGFGGGTKVVVV
# B6: 8C8 rabbit scFv (scFv, V domains shown)
# VH: QSVEESGGRLVAPGGSLTLTCKASGFSLSSSGVSWVRQAPGKGLEWIGYVSIADTISYANWAKGRFTISKTSSTTVDLEMTSLTTEDTATYFCVRGFITYSGVLWGPGTLVTVSS
# VL: QVLTQTPASVSAAVGGTVTISCQSSQNVYSNAFLSWYQQKPGQPPKLLIYKASKLASGVPSRFSGSGSGTQFTLTISGVQCDDAATYYCAGEYEGGIGTFGGGTEVVVVR
# What was measured:
# Test in all cases: cell-based or functional assay
# human IL-6 [1] = target: T1, human IL-6 (human, UniProt P05231 30-212)
# [2] = target: T2, human dimeric IL-23 (eBiosciences 34-8239) (human, UniProt P29460 23-328; Q9NPF7 20-189)
# T2 sequence (looked up) 1: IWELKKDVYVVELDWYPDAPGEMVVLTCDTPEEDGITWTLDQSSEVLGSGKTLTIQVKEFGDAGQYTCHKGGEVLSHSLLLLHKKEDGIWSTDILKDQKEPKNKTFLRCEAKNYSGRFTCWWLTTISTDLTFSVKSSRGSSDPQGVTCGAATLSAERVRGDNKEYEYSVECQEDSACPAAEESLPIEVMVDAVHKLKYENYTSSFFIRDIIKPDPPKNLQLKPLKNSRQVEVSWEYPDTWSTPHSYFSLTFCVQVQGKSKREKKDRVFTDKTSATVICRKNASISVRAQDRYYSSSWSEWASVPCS
# T2 sequence (looked up) 2: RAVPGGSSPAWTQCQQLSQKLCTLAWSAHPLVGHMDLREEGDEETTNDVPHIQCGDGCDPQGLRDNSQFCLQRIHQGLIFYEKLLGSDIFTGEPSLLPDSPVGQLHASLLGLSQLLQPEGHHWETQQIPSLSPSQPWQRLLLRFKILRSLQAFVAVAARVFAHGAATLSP
# human IL-6 [3] = target: T1, human IL-6; remark: listed apart in the source
Binder,"EC50, B9 cell line bioassay (human IL-6 [1])","EC50, mouse splenocyte assay [2]",further results
B1,,,"EC50, neutralization of IL-6, first batch (human IL-6 [1]): 1.67 ng/mL; EC50, neutralization of IL-6, second batch (human IL-6 [1]): 1.69 ng/mL; EC50, neutralization of IL-23, first batch [2]: 4.96 ng/mL; EC50, neutralization of IL-23, second batch [2]: 3.25 ng/mL"
B2,0.933 ng/mL,5.66 ng/mL,
B3,0.246 ng/mL,0.234 ng/mL,
B4,0.138 ng/mL,2.7 ng/mL,
B5,,,"EC50, inhibition of IL-6 induced B9 cell proliferation (human IL-6 [3]): 0.065 ng/mL"
B6,,,"EC50, inhibition of IL-6 induced B9 cell proliferation (human IL-6 [1]): 0.51 ng/mL"
